Experimental data reported in patent US20070105162A1, “Monovalent avidin and streptavidin compositions” (Massachusetts Institute of Technology, priority 2005, published 2007).

Test system: biotinylated AP-CFP-TM on HeLa cells
Assay: Staining of biotinylated AP-CFP-TM on HeLa with Alexa Fluor 568-conjugated streptavidins
Assay type: cell-based
Settings: Alexa Fluor 568 conjugate 10 μg/mL, 10 min at 4° C.
Experimental: Enzymatic biotinylation and imaging of HeLa transfectants were performed as previously described (Howarth, M. et al., Proc. Natl. Acad. Sci. USA 102: 7583-7588, 2005), except instead of 10 μM biotin and 1 mM ATP, we added 10 μM biotin-AMP (synthesized according to Coleman and Huang; Coleman, T. M. and Huang, F. Chem. Biol. 9: 1227-1236, 2002) to give equivalent biotinylation but minimizing the risk of purinoreceptor activation by ATP (Rathbone, M. P. et al., Prog. Neurobiol. 59: 663-690, 1999). […] Biotinylation of neurons was performed at day in vitro (DIV) 8 in Hanks' Balanced Salt Solution (HBSS) (Invitrogen) with 0.2 μM biotin ligase and 10 μM biotin-AMP for 5 min at 37° C. […] Neurons were washed with NeuroBasal media (Invitrogen) supplemented with B-27 (Invitrogen), 50 U/mL penicillin, 50 μg/mL streptomycin, and 0.2 mM L-glutamine and chased in the same medium for 0 or 2 hr at 37° C. Cells were then fixed in −20° C. methanol. […]
Images of HeLa cells were collected on a Zeiss Axiovert 200M inverted epifluorescence microscope using a 40× oil-immersion lens and a MicroMAX CCD camera (Roper Scientific; Tucson, Ariz.). CFP (420DF20 excitation, 450DRLP dichroic, 475DF40 emission) and Alexa568 (560DF20 excitation, 585DRLP dichroic, 605DF30 emission) images were collected and analyzed using OpenLab software (Improvision; Lexington, Mass.). Fluorescence images were background-corrected. […] Images were scaled to 16 bits and analyzed in Northern Eclipse (Empix Imaging; Ontario, Canada) with user-written software. […] Results were then calculated in terms of clusters per micrometer of dendrite. For assessment of pre-synaptic terminals, clusters were determined as before and average grey levels of clusters were compared between transfected dendrites and untransfected dendrites within the same field of view. […] “n” represents the number of transfected neurons for which clusters were measured. […]

Substance	Alexa staining of biotinylated AP-CFP-TM
D4: Streptavidin tetramer with 4 dead subunits (D: N23A, S27D, S45A, SEQ ID NO:3) [Tetramer D4]	no detectable staining
A1D3: Monovalent streptavidin tetramer: one His6-tagged wild-type (A) subunit and three dead (D) subunits [Tetramer A1D3]	detected equally well
